{"source": "the DeepSol protein solubility set"}
{"assay": "soluble on expression in E. coli; label from the status in PepcDB or PDB records"}
{"sequence": "MSLDKPVIKISTENVDLIYRVGDNGRLYQSYLGKRLNHATDIAHLPQGSEAYLTHGMEDYFEPAIHIVHNDGNPSTLLKYVSHTRNQVSPGVDEVVITMQDDKYPVTVKLHYVAYQKENLIKTFTEISHREKKPVQLHKYASSMLHLNRANYFLTEFSGDWASEAHVKEQPLEFGKKTIDTKLGARANMFCSPFFQLALDGKSEENQGEVLVGTLGWTGNFSFVFEVDNKNELRVISGINPYASEYSLKPNEIFRTPDFYFTYSFKGKGQASRNFHDWARKYQVKDGNQTRMTLLNNWEATYFDFDEAKLVKLMDDAVELGVDMFLLDDGWFANKYPRSGDHQGLGDWDETADKLPHGIGYLTEAAKKKGIKFGIWIEPEMVNPKSELYEKHKDWVIHLPNRDEYYFRNQLVLDLSNPKVQDYVFGVVDNLMTKYPDIAFFKWDCNSPITNIYSVYLKDKQSHLYIDYVRGLYNVLERVKAKYPDLPMMLCSGGGGRSDYEALSYFTEFWPSDNTDPIERLFIQWGFSQVFPAKTMCAHVTTWNKNSSVKFRTDVAMMCKLGFDIKLADMSKDDETYCRTAVQNYNRLKPVVLEGDMYRLVSPYGSNHTSTMYVGKDKDKAVVFAFDIHPRYAEKILPVRLQGLDADKMYRVKEINLMPGANSEGHHHHHH", "soluble on expression in E. coli": "not soluble"}
{"sequence": "MSLDKVERRLYELYEKAINYEPLSKEEALYILEVDDIYVPFLVHLAQKIKKHYFPENEVEFCSIINAKSGACSEDCKFCAQSKYYKTPINVYNLVPVDEMVEGAIRGVEFGANRYCIVLSGKSATKEEVERITEAVKEIKNEGLPINVCVSAGTLDEESLKKLKEAGVKRINHNLETSRNFFKNIVTTHTWEDRYETIKRIKKVGLSTCSGGIFGMGESNEDRVDMALTYRELEVDSIPLNFLMPIEGTPMENAPGVEVMEALKIIAMFRFTNPKAELRLCGGREQNLRDFHGMATLMTNAMMVGGYLTRAGRDIKKDYQLLKDLKAKRKVSVEEGHHHHHH", "soluble on expression in E. coli": "soluble"}
{"sequence": "MSLDKVLVGYWHNWKSTGKDGYKGGSSADFNLSSTQEGYNVINVSFMKTPEGQTLPTFKPYNKTDTEFRAEISKLNAEGKSVLIALGGADAHIELKKSQESDFVNEIIRLVDTYGFDGLDIDLEQAAIEAADNQTVIPSALKKVKDHYRKDGKNFMITMAPEFPYLTSSGKYAPYINNLDSYYDFINPQYYNQGGDGFWDSDLNMWISQSNDEKKEDFLYGLTQRLVTGTDGFIKIPASKFVIGLPSNNDAAATGYVKDPNAVKNALNRLKASGNEIKGLMTWSVNWDAGTNSNGEKYNNTFVNTYAPMLFNNEGIITITTDPNSSSVDKLAAALEHHHHHH", "soluble on expression in E. coli": "soluble"}
{"sequence": "MSLDLFSWAAAQQAAQSAPLAARMRPQTLDEFVGQEHLVGPGRFLRRALEAGHLPSCILFGPPGTGKTTLARLMASNVNAHFEQLNAVTSGVQDIRRIVDEARARLAERGQKTVVFIDEIHRWRKDQQDALLPHVEDGLITLVGATTQNPLVSVNAPLVSRTRIFELKPLSDEHIAHLLDRALRTPGRGLGNYNATVTPEAMEHLVRMAGGDARAALNALELAVLLTQPDEQGRRTVTLETAEEALLKRAVVYDHDGDEHYHVASALIKSIRGSDPDAALYWLARMLYAGEDPRFIARRLVISAAEDIGLADPQALVIAQAAADAVSFIGMPEGRIPLAEAVVYLACAPKSNSAYLAIDRALAVVEREKTPPVPNHLKDTGYGSDQRLGYGKGYQYPHDFPGAWVEQRYLPEGVDGPFWEPKGYGREAELARLLRERRGREGHHHHHH", "soluble on expression in E. coli": "not soluble"}
{"sequence": "MSLDSLDKSKLERMLDIKEAHREGHLTLEEAKERMKKEVGSISPEEFAAAEQLFKERDQDECQNEDVRTMLQLFEGLINPIRPDLPFGHPIDAYLRENDKAKELLDQADALLERTFIPNPWIELMETLMGYKLHFARKQNQLYSTLEQKGFDRPSTTMWTYDDHIRDEMNKAMSLLREKDYDSFPAAYKEMAIVLRDLMEKEELILYPTSLKLISDKEFEEMKHGDREIGFFLIDMPELDAPAKQSKEAHGQSFMAELGALLAKHGMGTGGQDDKAILDVAEGKLTLEQINLLFRHLPVDISFVDENELVCFYTDTKHRVFPRSKGVIGREVRNCHPPKSVHIVEEIIDKFRRGEQDRAEFWINKPGVFIYIVYVAIRDADGRFRGVMEMMQDCTRIRSLEGSRTLLTEGHHHHHH", "soluble on expression in E. coli": "soluble"}
{"sequence": "MSLDTDRILRAFASLVQATLRTNYFVTRQGSARCRDVLALKLNAQLIDELPLPRPRYEIFVYSPRVEGVHLRFGPVARGGLRWSDRRDDFRTEILGLVKAQAVKNAVIVPVGAKGGFVVKRPPLPTGDPAADRDATRAEGVACYQLFISGLLDVTDNVDHATASVNPPPEVVRRDGDDAYLVVAADKGTATFSDIANDVAKSYGFWLGDAFASGGSVGYDHKAMGITARGAWEAVKRHFREIGIDTQTQDFTVVGIGDMSGDVFGNGMLLSKHIRLIAAFDHRHIFLDPNPDAAVSWAERRRMFELPRSSWSDYDRSLISEGGGVYSREQKAIPLSAQVRAVLGIDGSVDGGAAEMAPPNLIRAILRAPVDLLFNGGIGTYIKAESESDADVGDRANDPVRVNANQVRAKVIGEGGNLGVTALGRVEFDLSGGRINTDALDNSAGVDCSDHEVNIKILIDSLVSAGTVKADERTQLLESMTDEVAQLVLADNEDQNDLMGTSRANAASLLPVHAMQIKYLVAERGVNRELEALPSEKEIARRSEAGIGLTSPELATLMAHVKLGLKEEVLATELPDQDVFASRLPRYFPTALRERFTPEIRSHQLRREIVTTMLINDLVDTAGITYAFRIAEDVGVTPIDAVRTYVATDAIFGVGHIWRRIRAANLPIALSDRLTLDTREGHHHHHH", "soluble on expression in E. coli": "not soluble"}
{"sequence": "MSLDTPRIILHNSDTAPLTHWLRAAFPQADFRECNSYEALPALIEGYRPEVVYSVRFAGTPGFPRDALFGPGGPRWIANGGAGTDHYGQWDPGQTTVTNTAGVAAEMMAEYILGGFLHFSLDVPGLQKDKAARVWNARTVRPLAGKTLLIIGLGHTGRAVAARSKAFGMKVLGTRARPKPMENVDEVHAADDLHDLLPHADFIAVSTPLIPATRGLIGAQEIAAMKSGVIFADVSRGGVVDQTALYDALSVGHVAAAALDVFETEPLPEISPLWALENVIISPHCSSVFAEWEEASFELFLQNLGRWMRGEGHHHHHH", "soluble on expression in E. coli": "not soluble"}
{"sequence": "MSLDVAIGEVLAEVAAQEGDRLALVEVVPNGMDSPVGAASTSRRWTYAQLNDDARRCASWLLTQFKTGDHICVWAPNVPEWIVLQYGAALSGLVLVTANPALKASELEFVLQQSQSVALFHLDAFRGVETGAVARSFASAKLRCISFSGWLAEIRRTEIGALPRIDPGQPAQIQYTSGTTGRPKGALLHHRGLITNASYVAARAGLDHSVLLSPMPLFHTAGSIMSVLGCLNSRSTLVLPLLFDPGTVLDAIAHTRADTLFGVPTMLLAVIDAQLQAPRDLSSLRVAASGGAQVPPELHRRIHDALKLPLLTVFGQTELSPIVSQTCIDDPDEQRIHSVGRPLWNVEVRIVDPNGDRVVVIGVEGEIQVRGYQTMLGYFNAPKETSETITADGWLRTGDLGAMDEAGYLRITGRLKDMIIRGGENIYPAEVEACLLRHPAVADISVFGAPDDKWGEVVAAAVRLVPDVPVTATELSAFCKTEIAPHKAPTVWYACTGFPLTASGKIQKFRLRDAAVEGELQRLSEGHHHHHH", "soluble on expression in E. coli": "soluble"}
{"sequence": "MSLDVSAYPFFRRDMSWLSFNERVLMEAADRTLPVYDRIKFLSIFSSNLEEFYTVRVAYHQAVLQKRRDRSEAEEDSDADAHILQAIRETVIRQDELYYRIFYDQILPTLEEHGIRLRTHAPTHPDHKAYLRRFFHEEIFPLLYPMLLLPSKVRTFIRSGRVYLAVRLKEKETDEAYSYALLNVPTDGLPRFVELPRLQTDTFYYYSFLEDIIKEHLDVVFPGYEVMDSYSIKVSRDADLLLDAQRPEDLPGEIRKKVKTRKLGAPTRFMYDGRMPDEVLRYICSSCDIDPEEAIRSGNYVNLQDLAMLPNPFAPRLETLTPEPLLSKHLEQAPSLMEGIRRKDYLIHVPYYTYDYVVRLLMEAAISPDVSEIRLTQYRVAENSSIISALEAAAQSGKKVSVFVELKARFDEENNLRLSERMRRSGIRIVYSMPGLKVHAKTALILYHTPAGERPQGIALLSTGNFNETTARIYSDTTLMTANTDIVHDVYRLFRILDGDPEPARFSRLLVARYNMGEAITNLIEREIENVKRGKRGYMLLKMNGLQDKNVITQLYRASEAGVEIDLIVRGICCLVPDMPQSRNIRVTRLVDMYLEHSRIWCFHNGGKEEVFISSADWMKRNLYNRIETACPVLDPTLRREIIDILEIQLRDNIKACRIDSSLNNIYKHNSDEKPVRAQAAIYRYLKGKEETTPAAKEGHHHHHH", "soluble on expression in E. coli": "soluble"}
{"sequence": "MSLDYGINFWSDNDFIIEDGQVKINYKTKPAIIDIVKKVREEGYRGPLLLRFPHLIKKQVDKIFTHFETSIKQYHYKGQFKAVFPLKVNQFPNFVLPLVELSQNRCYGLEAGSKAELIIAMAYTNKGSPITVNGFKDKEMISLGFIAANMGHEITLTIEGLNELETIIEVAEEMGKPCPNIGLRIRLHSSGIGIWAKSGGINSKFGLTSTELLEGIRLLEKHKLIEKFTMIHFHIGSQISDISPLKKAMREAGNIYAELRKMGAKNLKSVNIGGGLAVEYTQHEGSPNRNYTLDEFAGDVVFSLKEIAKNKKEPEPDIYIESGRYIAASHALLVAPVLELFSQEYDEKALHLKDKNPQLIEELNELYNTVNEKYAIEYLHDSLDHMESLLTLFDLGYIDLQDRSNTEILVHLIIKKVIKILKHKNHSDIIRIQEQVQERYLLNCSFFQSLPDYWGLEQSFPVMPLDRLNKRPTRSASLWDITCDSDGEIGFDLNKPLFLHDVDVTTEEYFLGFFLVGAYQEVLGMRHNLFTHPTELSVEFEEDGTHSVTNLLEAQTILDVLDDLDYDEGHHHHHH", "soluble on expression in E. coli": "not soluble"}
{"sequence": "MSLEALSSYQQRNNQQLDQWLNRIPFQTLPLIEAMRYGLLLGGKRARPYLVYITGQMLGCELSDLDTPASAVECIHAYSLIHDDLPAMDDDELRRGKPTCHIQFDEATAILTGDALQTLAFTILAEGDLSAAGETQRVAMLQALAEASGAQGMCLGQALDLAAENRLISLEELETIHRNKTGALMRCAIRLGALAAGEKGRAMLPHLDRYAEAVGLAFQVQDDILDIISDTETLGKPQGSDQELNKSTYPALLGLEGAQQKAHTLLQEALLALEAIPYNTEHLEEFARYVVERKNEGHHHHHH", "soluble on expression in E. coli": "soluble"}
{"sequence": "MSLEEDIQKQIIAAKEEAHDETIWGKPANDIITGIGNNSGVRPQRAIWEMVQNARDVSLNGKADIVFERQHDCFIFQHNGISFTNNTLEALILQTSSKVRNDSVQVGQYGTGFLTTHKLGLKFTLSSSVQLLENEQLFHHFSNFLIDRSSTDKKQMRDSLKKQIKITEEWARNPTIVSGPSSLTTFRYIQEHEVEKMNTKEAFKASSALAPYVIALNPCVNSISFVDNVEDCKELYIRKSTEIINTCDFYNVVKVTIDKCETESCDFTVLMLQSKETVEESGEPKVIVILPIKELESKSVAFALSKDVPNLFIYLPLLGTEQWGLNFIFHSPLFTCDKDSRDSLRFVGNGQNNDVDAERNKGIIQLADVIVSHYITENLSNIQDCMYLAKVAFNLHNSDEALANYYKSLQSSWVKKYESFPFVITKNGNIITRQAKVFDKELFDACLENKDLLTAVYNVTVQIYGTDYLPLETNMLFWSETLLQWYEAESFNPHLIHLSDIVEYIDKNNITTIGEENLWCIDNYIANSKQIGLFTKYKLLPTKNGELRVREDLLNPIIHDESLLKILDSLLPNDVASFIHTRFVLFEDVKIEEYDHNKVKESMRLLVSELSDLQKGHEIYRTNILAGLDVDSNKYEQNKLSDNHINALMGFYAYIVNIGGEAFQYKMIHLLADFYNIDLKSGEAYIKEIYDWRTVAPLLIKDALFRFTLMDSEGHHHHHH", "soluble on expression in E. coli": "not soluble"}
{"sequence": "MSLEGNLEELVYFYPPSTTPPAVGKYTQLISDLLQSVSIVDALPRGAAQAGILCQDTKEVLESENTVLEIAIPRQDNLVIVGDIHGQFADMLSNVLSIQLNLNNTKATDGRGSPSTEIYKFLFLGDYVDRGPQSLEVITLLFALKVEYPEHIFLLRGNHEEAQTSRLYGFFQECKSKLEGTGDRGPASVDITSSTWLQYNTVFCWLPLAAVVACPSGMFFCTHGGLSPHTLSVPLLRSLRRNEYGMVDDFEDTFYTPTSRGGDDMLEGPGAKARLVIDGLLWSDPEDQVSGCQMNNRGCGFIFGPDVTRSFLDRNYSYGFPPSKRQLIGEMKPGMQFILRGHQCAREGYMWCHGGLVLTLFSAPNYCGMHGNKGAVALLRGQVQAGKDRVELEFNVYDTVVRGGSDNLVACLSPFAFAHYFSGDSEGHHHHHH", "soluble on expression in E. coli": "soluble"}
